Measured values published in article PMC10666096 (Proceedings of the National Academy of Sciences of the …, 2023).

Biological target: the molecule itself
Experiment: single-molecule photobleaching analysis

B1: Cyanine-5 labeled N43S Fluc-Bpe (natural protein, Bordetella pertussis)
chain: MLTYAPLNFIAIGIGATLGAWLRWVLGLKLNGAGWPWGTLTASLVGGYLIGVMVALIASHPEWPAWIRLAAVTGFLGGLTTFSTFSAETVDMLSRGVYATAAAYAGASLAGSLAMTGLGLATVRLLLC
modifications: Cy5 (Cyanine5-maleimide) on the cysteine of R128C
stoichiometry N: 2
